This is an account of results in US20210347908A1 (ELPISCIENCE SUZHOU BIOPHARMA, published 2021).

The target in assay [1] is T1, biotin labeled soluble human SIRPα v1 ECD recombinant protein (human, UniProt P78324 31-373, biotin labeled).
T1 construct: extracellular domain
Kind of assay: competitive ELISA, hSIRPα/CD47 blocking.

For assay [2], the target named is T2, full length human SIRPα v1 stably expressed on CHOK1 cells (human, UniProt P78324 31-504).
T2 construct: whole, on cells; also called CHOK1-human SIRPα v1-1B4 cells; CHOK1-human SIRPα v1
T2 sequence (P78324 31-504): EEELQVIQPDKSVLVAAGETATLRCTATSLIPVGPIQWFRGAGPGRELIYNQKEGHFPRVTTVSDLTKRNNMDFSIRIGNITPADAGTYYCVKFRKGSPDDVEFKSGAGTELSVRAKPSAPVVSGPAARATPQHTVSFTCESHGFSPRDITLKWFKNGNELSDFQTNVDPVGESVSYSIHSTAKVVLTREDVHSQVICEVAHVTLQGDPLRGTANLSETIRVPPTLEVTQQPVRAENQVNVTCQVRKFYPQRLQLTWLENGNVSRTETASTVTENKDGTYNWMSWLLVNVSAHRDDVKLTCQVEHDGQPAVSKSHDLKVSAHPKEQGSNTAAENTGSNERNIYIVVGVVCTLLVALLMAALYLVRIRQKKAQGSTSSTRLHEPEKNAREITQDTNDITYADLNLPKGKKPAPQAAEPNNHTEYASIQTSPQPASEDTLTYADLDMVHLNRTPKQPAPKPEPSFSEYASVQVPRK
The assay can be described thus: FACS on CHOK1-human SIRPα v1-1B4 cells. How it is done: Species cross reactivity of the purified hybridoma antibodies against human, cyno and mouse SIRPα was determined by FACS assay using CHOK1-human SIRPα v1-1B4 cells, CHOK1-cyno SIRPα-2A2 cells, and CHOK1-C57BL/6 mouse SIRPα-2.22 cells, which stably expressing SIRPα protein. Briefly the antibodies were incubated with 2×10⁵ target cells at 4° C. for 1 hour. After washing, fluorescence labeled anti-mouse or anti-human IgG 2nd antibody (Life Technologies) was added and incubated at 4° C. for 1 hour. Geometric median fluorescence intensity was detected and EC₅₀ was calculated. In particular, it is noted, in contrast to the other antibodies tested in the same experiment, 060 cannot bind with cyno SIRPα and 035 has cross reactivity against C57BL/6 mouse SIRPα.
hu035.01, the first version of humanized 035, was characterized by FACS assay using CHOK1-human SIRPα v1-1B4 cells, ELISA assay using Fc tagged human SIRPα v2 ECD recombinant protein and SPR analysis using the antigen of 6×His tagged human SIRPα v2 ECD recombinant protein (refer to methods described in Example 3.4, Example 3.3 and Example 4.3). […] In particular, hu035.01 cannot be detected to bind with C57BL/6 mouse SIRPα ECD in ELISA assay possibly due to reduced binding activity (FIG. 5B).

Assay [3] deals with T3, 6×His tagged human SIRPα v8 ECD recombinant protein (human).
T3 construct: extracellular domain; bought; also called hSIRPα V8
The assay can be described thus: ELISA.

In assay [4] the target is T4, Fc tagged human SIRPα v2 ECD recombinant protein (human).
T4 construct: range 1-369; cloned range M1-R369 includes the signal peptide; also called hSIRPα V2
The assay can be described thus: ELISA.

Assay [5] addresses T5, Fc tagged human SIRPγ ECD recombinant protein (human, UniProt Q9P1W8 29-360).
T5 construct: range 1-360; cloned range includes the signal peptide; also called hSIRPγ; not shown: human IgG Fc region (hFc) of the pCPC vector
The assay can be described thus: ELISA.

In assay [6] the target is T6, Fc tagged human SIRPβ ECD recombinant protein (human, UniProt O00241 30-371).
T6 construct: range 1-371; cloned range includes the signal peptide; also called hSIRPβ; not shown: human IgG Fc region (hFc) of the pCPC vector
T6 sequence (O00241 30-371 limits assumed, form in doubt): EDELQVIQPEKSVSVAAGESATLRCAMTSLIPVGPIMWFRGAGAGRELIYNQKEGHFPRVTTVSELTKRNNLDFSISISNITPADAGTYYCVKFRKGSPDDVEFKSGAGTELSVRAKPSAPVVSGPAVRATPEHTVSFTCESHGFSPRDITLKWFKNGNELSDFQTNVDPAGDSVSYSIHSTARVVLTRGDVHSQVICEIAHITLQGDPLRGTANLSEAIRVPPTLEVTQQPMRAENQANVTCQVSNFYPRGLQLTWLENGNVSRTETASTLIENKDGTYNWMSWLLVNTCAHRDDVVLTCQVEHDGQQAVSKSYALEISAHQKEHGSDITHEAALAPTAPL
The assay can be described thus: ELISA.

The target in assay [7] is T7, Fc tagged human SIRPα v1 ECD recombinant protein (human, UniProt P78324 31-370).
T7 construct: range 1-370; cloned range M1-R370 includes the signal peptide; also called hSIRPα V1; not shown: human IgG Fc region (hFc) of the pCPC vector
T7 sequence (P78324 31-370 limits assumed): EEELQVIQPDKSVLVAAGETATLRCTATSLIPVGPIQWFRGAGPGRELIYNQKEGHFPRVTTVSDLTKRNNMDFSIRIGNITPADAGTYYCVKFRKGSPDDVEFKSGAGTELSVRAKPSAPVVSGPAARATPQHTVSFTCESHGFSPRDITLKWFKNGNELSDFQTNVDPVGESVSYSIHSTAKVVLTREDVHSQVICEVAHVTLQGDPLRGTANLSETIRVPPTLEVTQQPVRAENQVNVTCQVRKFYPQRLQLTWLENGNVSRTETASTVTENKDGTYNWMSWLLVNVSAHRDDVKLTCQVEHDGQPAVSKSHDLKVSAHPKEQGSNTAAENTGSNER
The assay can be described thus: ELISA.

Assay [8] concerns the target T8, 6×His tagged human SIRPα v2 ECD recombinant protein (human). The assay can be described thus: SPR (Biacore), antibody captured. In a few lines: (§1)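 Chimeric anti-SIRPα antibodies captured on CM5 via anti-human antibody kit; His-tagged SIRPα ECD proteins injected as dilution series at 30 μl/min for 180 s, dissociation 400 s, regeneration with 3 M MgCl₂. Ka, Kd and KD from 1:1 binding model fits.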

Assay [9] deals with T9, 6×His tagged human SIRPα v1 ECD recombinant protein (human, UniProt P78324 31-373).
T9 construct: extracellular domain; bought; also called hSIRPα V1 (SPR antigen)
T9 sequence (P78324 other isoform, or with tags, fused parts or gaps): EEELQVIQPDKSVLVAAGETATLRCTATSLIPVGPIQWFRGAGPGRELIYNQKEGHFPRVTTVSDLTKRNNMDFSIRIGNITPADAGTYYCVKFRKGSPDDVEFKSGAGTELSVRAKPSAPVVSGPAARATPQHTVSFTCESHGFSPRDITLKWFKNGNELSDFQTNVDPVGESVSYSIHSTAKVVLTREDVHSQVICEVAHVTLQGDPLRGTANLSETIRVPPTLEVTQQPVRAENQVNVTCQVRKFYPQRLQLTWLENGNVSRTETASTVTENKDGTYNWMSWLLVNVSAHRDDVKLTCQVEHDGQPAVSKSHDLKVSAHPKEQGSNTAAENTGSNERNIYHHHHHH
The assay can be described thus: SPR (Biacore), antibody captured. In a few lines:
as §1

The target of assay [10] is T10, 6×His tagged C57BL/6 mouse SIRPα ECD recombinant protein (mouse (C57BL/6), UniProt P97797 32-373).
T10 construct: extracellular domain; bought; also called mSIRPα (C57BL/6); mouse SIRPα (C57BL/6) ECD
T10 sequence: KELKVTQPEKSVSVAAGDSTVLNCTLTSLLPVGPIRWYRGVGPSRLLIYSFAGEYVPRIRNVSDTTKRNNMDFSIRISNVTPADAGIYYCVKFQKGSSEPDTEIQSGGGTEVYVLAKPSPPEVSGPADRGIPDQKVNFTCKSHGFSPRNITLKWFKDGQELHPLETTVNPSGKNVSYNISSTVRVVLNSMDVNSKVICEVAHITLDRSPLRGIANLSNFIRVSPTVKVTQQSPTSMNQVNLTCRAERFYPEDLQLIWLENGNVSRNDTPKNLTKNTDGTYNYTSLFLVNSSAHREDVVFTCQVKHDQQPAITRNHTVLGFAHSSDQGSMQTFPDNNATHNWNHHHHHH
Kind of assay: SPR (Biacore), antibody captured. In a few lines:
as §1

The target of assay [11] is T8, 6×His tagged human SIRPα v2 ECD …. The assay can be described thus: SPR (Biacore).
The target of assay [12] is T9, 6×His tagged human SIRPα v1 ECD …. The assay can be described thus: SPR (Biacore).
Assay [13] concerns the target T10, 6×His tagged C57BL/6 mouse SIRPα ECD …. Kind of assay: SPR (Biacore).

T8 sequence (chain, as listed by the source): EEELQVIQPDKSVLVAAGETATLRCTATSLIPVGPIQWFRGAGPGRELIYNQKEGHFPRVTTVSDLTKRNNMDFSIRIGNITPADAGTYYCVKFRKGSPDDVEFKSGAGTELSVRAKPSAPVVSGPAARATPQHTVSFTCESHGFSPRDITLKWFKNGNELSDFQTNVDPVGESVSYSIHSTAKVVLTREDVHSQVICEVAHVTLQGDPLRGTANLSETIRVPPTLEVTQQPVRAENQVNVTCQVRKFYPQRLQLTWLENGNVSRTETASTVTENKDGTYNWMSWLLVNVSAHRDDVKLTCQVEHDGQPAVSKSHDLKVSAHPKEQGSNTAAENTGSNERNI
T5 sequence (Q9P1W8 29-360 limits assumed, form in doubt): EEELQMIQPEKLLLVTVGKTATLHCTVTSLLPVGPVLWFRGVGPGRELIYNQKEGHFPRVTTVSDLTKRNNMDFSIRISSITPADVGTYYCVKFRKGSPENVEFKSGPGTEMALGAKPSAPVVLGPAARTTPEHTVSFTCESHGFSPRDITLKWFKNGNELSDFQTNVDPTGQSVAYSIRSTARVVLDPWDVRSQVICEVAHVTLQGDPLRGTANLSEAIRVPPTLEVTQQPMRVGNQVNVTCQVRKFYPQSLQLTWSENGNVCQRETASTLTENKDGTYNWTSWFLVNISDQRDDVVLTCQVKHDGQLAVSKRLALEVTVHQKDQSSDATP
T1 sequence (P78324 31-373): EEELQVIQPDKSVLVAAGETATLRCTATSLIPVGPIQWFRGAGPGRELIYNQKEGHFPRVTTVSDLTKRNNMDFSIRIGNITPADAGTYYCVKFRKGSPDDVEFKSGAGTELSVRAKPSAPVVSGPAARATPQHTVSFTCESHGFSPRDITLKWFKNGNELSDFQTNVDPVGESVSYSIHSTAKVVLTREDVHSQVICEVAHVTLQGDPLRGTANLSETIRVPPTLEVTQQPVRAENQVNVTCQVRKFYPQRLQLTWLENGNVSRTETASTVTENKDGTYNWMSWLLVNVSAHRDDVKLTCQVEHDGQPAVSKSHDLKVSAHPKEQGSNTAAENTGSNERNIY

B1: chimeric antibody 035c (antibody, V domains shown)
VH: QIQLVQSGPELRKPGETVKISCKASGYSFTNYAMNWVKQAPGKVLKWMGFINTYTGEPTYADDFKGRFAFSLETSASTAYLQINNLKNEDTATYFCTRTRGYYDFDGGAFDYWGQGTSLTVSS
VL: DIVMTQSQKFMSTSIGDRVSVTCKASQNVGTHLAWYQQKPGQSPKALIFSASYRYIGVPDRFTGSGSGTDFTLTITNVQSEDLAEYFCQQYNTYPLTFGAGTKLELK
In the case of B1, in assay [1], the IC50 worked out at 1.03 nM. For the same molecule, in assay [2], the concentration giving a half-maximal response (EC50 (read off the curve)) was around 0.2 µg/mL. Further, the concentration giving a half-maximal response (EC50) in [3] was 0.2 nM; in [4], 0.13 nM; in assay [5], 16.4 nM; in [6], 0.13 nM; in [7], 0.16 nM. The dissociation constant (Kd) in assay [8] was 3.82 nM; in [9] it was 1.89 nM; in assay [10], 5270 nM; in assay [11] it was 1.39 nM; in assay [12] it was 1.89 nM; in assay [13], 5270 nM. Further, the koff in [8] turned out to be 0.000238 s⁻¹; in assay [9], 0.000274 s⁻¹; in assay [10] it was 0.0247 s⁻¹. For the same molecule, the results for the association rate constant (kon) in [8], in assay [9] and in assay [10] were 62100 M⁻¹ s⁻¹, 145000 M⁻¹ s⁻¹ and 4690 M⁻¹ s⁻¹, respectively.
